A short description of the data set: soluble on expression in E. coli; label from the status in PepcDB or PDB records.
For “MAIDPAAAYASAIRTPGLLPNAKLVVDHFHVTTLANDALTAVRRRVTWAFHDRRGRKIDPQWANRRRLLTARERLSDKSFAKMRNRINAVDPRAQILSAWIAKEELRTLLSTVRTGGDPHLARHHLHRFLPGASTRRSPNCSPWPPPLTSHPRSTPSWSPASPTRASVVGEVAEMLGDIDGQCVQVEVPVPERGPAGCGGLDGLGRAGVSATPRVCAAMTAVNVAGRCAGQQADVGPTPQHRCRGR”, the “soluble on expression in E. coli” value is listed as “soluble”. Then “MAIQFELYKSPARKDEEDKELYHARVVNFQHIDTDYLAKEIQQATSLTEGDVKAVLESLSHFMGSRLREGERVHLDGIGYFQVKLNSLEPITSPKLKANQMKLKANIGFKADKKLRSSVSVVKVERSKLKLHSVPRSNEEIDRLLTAYFSNNQILTRSDFQGLCKLTLTTAARHIKRLKEEKKLQNINTRQSPVYVPMPGYYGKPEVEDTVK”, with “not soluble”; and “MAISDSYLKSCLGRERDKVEEKADRDGLWVRISKKGAVTFFYRFRFLGKQDKMTIGSYPEFGLKAAREEVTKWAAILARGENPRIRQSLDKAKINSQYTFEELFREWHAMVCVQKETSDQILRSFELHVFPKLGKYPAHQLTLHNWLTVLDRLAQGYTEITRRVISNGRQCYSWAVKRQLLEVNPLSEMSGRDFGIQKKMGERTLDRKEIAIVWRAIEDSRLIERNKILYKLSLIWACRVGELRQAEVSHFDFEEGVWTVPWENHKTGRKSKKPIIRPIIPEMLPLIQRAIELAPGRFVFSKYADKPMSEGFHMSISSNLVKFMLKAYNEQVPHFTIHDLRRTARTNFSELTEPHIAEMMLGHKLPGVWSVYDKYTYIEEMREAYSKWWARLMSIIEPDVLEFTPRQTG”, with “not soluble”; and “MAISIKGVNTGVIRKSNNFIALALKIKEPRNKESLFFMSVMELRDLLIALESRLHQKHKLDAAAHLQYEQARDKVIKKMAENIPEILVDELKNADINRRVNTLELTDNQGENLTFVLTLHDGSKCELVVNELQIEMLARAIIHAINNAEMRELALRITSLLDFLPLYDVDCQDNGNLEYDTYSQPEWKHNLFDHYLAVLYRFKDESGKEQFSGAVVKTREATPGKEIEAITRRMLDFSPRLKKLAGVPCQVYVRTVAANNAQPLTQDQCLRALHHLRVQSTSKTAPQAK”, with “not soluble”. Regarding “MAKAGREGPRDSVWLSGEGRRGGRRGGQPSGLDRDRITGVTVRLLDTEGLTGFSMRRLAAELNVTAMSVYWYVDTKDQLLELALDAVFGELRHPDPDAGLDWREELRALARENRALLVRHPWSSRLVGTYLNIGPHSLAFSRAVQNVVRRSGLPAHRLTGAISAVFQFVYGYGTIEGRFLARVADTGLSPEEYFQDSMTAVTEVPDTAGVIEDAQDIMAARGGDTVAEMLDRDFEFALDLLVAGIDAMVEQA”, the “soluble on expression in E. coli” value was “soluble”. “MAKDIRVLLYYLYTPIENAEQFAADHLAFCKSIGLKGRILVADEGINGTVSGDYETTQKYMDYVHSLPGMEELWFKIDEENEQAFKKMFVRYKKEIVHLGLEDNDFDNDINPLETTGAYLSPKEFKEALLDKDTVVLDTRNDYEYDLGHFRGAIRPDIRNFRELPQWVRDNKEKFMDKRVVVYCTGGVRCEKFSGWMVREGYKDVGQLHGGIATYGKDPEVQGELWDGKMYVFDERIAVDVNHVNPTIVGKDWFDGTPCERYVNCGNPFCNRRILTSEENEDKYLRGCSHECRVHPRNRYVSKNELTQAEVIERLAAIGESLDQAATVLEHHHHHH”: the “soluble on expression in E. coli” value is “soluble”. On to “MAKGQNAPIRRRTLTRDKVVDAAIEIIDEHGWEQLSMTSLSARLNVVTASLYNHVRNLDDIRGAVQVRTMTELGAHLREIAMGRTGPDGLRALVDAHRAWATQHPHRYQTLTTSPVDRDAFISAALDANTALRTMLASCGLPPEDTLDAAVSIFAAMHGFVMLVNTDFLGDELDLDSIYESVLRGALSSVGWPERTHTPS”, for which the “soluble on expression in E. coli” value is recorded as “not soluble”. Take “MAKKRGKPEIDWTDDDKEIIWVSKSEIKRDSEHLKKLGAELIELTPQNLEKIPLDEDLKYAIRQAQSFKLEARRRQIQFIGKLLRNRDSAPIQDALDKVKNRHNQQQALLHKLELIRDQLINMGDASLNQLLSEYPQLDRQHLRNLIRMAQKEKQINKPAKNYHEILQYLKSELIV”: the “soluble on expression in E. coli” value is given as “not soluble”. Regarding “MAKKSTGFDHDPVRVLVAWNPSSHGAEAIECAAWLARTTNVTVQCVTAFLRPWPSSSGNKLGSKYKKWFKKEAFACEDAVKAAFSRAEIPTAMWADTVSVFCDGTNEAALLSEAAHKFGADIVLLGSEAAAPKGRFLAGSTADALLHSSPQPLGLTPRKPKLSKRGVTRVNFAYTGDATDNTSLIRTARLAAAWDVPLRVLALSPEGFGVPPISDTLELPEDLALEWRENTFAVLDRSRDTVHKAHPDVIVETEIGSGNGWSGAIESLKWKKGDLLCFGSTPLGAFERVFIGSQATEILPYVSVPVLMIPATTKVDKKSKK”, the “soluble on expression in E. coli” value was “soluble”. Take “MAKNDIWTPLESNPDSLYLYSCKLGQSKLKFVDIYGFNNDLLDMIPQPVQAVIFLYPVNDNIVSENNTNDKHNLKENFDNVWFIKQYIPNSCGTIALLHLYGNLRNKFELDKDSVLDDFFNKVNEMSAEKRGQELKNNKSIENLHHEFCGQVENRDDILDVDTHFIVFVQIEGKIIELDGRKDHPTVHCFTNGDNFLYDTGKIIQDKFIEKCKDDLRFSALAVIPNDNFDII”: the “soluble on expression in E. coli” value is given as “soluble”. For the sequence “MAKNFAEQIVESLENQGVKRIYGLVGDSLNPIVDAVRTSNIEWIHVRNEETAAFAAEAESLLTGELAVCAASCGPGNTHLVQGLYDANRNGAKVLAIASHIPSRQIGSHFFQETHPEALFAECSGYCEMANSALQGEVILHHAIQSTMAGKGVSVLVLPGDVTMQDVEDDTFTGSRISNARPIMYPDPAEAADLVKAINEAKTVTLFCGAGVRYARKEVLELAEKIKAPIGHALGGKMYIQYDNPFDVGMSGLLGYGACHDASNDADLLILLGTDFPYNDFLPRKNVAQIDIDGSHIGRRTRISHPVVGDVAATISNILPHIEEKTDRSFLDRMLKKHHRKLNDVIEAYTSGVEKHTPIHPEFVANIIDEIAADDAVFTIDTGMCNVWGARYITPNGKREMIGSFRHGTMANALPQAIGASAANPRRQVVTFSGDGGLGMLMGELLTVKLHNLPIKTVVFNNSSLGMVKLEMLVQGMPEHETDHEHVDFDAIAAAVGIEHIKITDPAKARQQLQAAFDYDGPVLIDIITDPNALSIPPNITMDMLMGFSRAATRTVFGGGVGHMVDMAKSNLRNIPKP”, the “soluble on expression in E. coli” value is “not soluble”. Take “MAKRKKKEVFDWEDEDQEEIIWVSKSEIKRDAEDLKQLGEKIVNLTKANLAKIPLDESLLDAIELAQRLQKEARRRQLQYIGKLFRGIDVEPIREALDKIENKHNQQQAMLHKIEKVRDELVEKGDVALTDLLNDYPNGDRQQLRNLIRSAQKELEQNKPSKAYREIYQMLKVLMLED”: the “soluble on expression in E. coli” value is listed as “not soluble”. Then “MAKSLTFSTFSPNNTLKKNVIPIVLLHGWGLNSGVWQPLLELFHRNDESIYQLITIDLPGFGINSAVDIKPYSLANICHHIEQVIDQPAIYLGWSLGGLIATEMSLKYPEKVLASITVASSPYFVEQPTDNWPGIKENVLESFHKQLAQDTAKTISGFLKIQAMGSPHIRQDLKLITQLVMAHTLPSQQTLADSLALLSNSDLRLHLSKIKQPLLRLYGHNDSLVPKEVMEKISYLAPNSDQHLFADASHAPFISHLDDFYQVLVVWLDSHFNLEHHHHHH”, with “not soluble”; and “MAKTIFYFSYRKTEELHAKAKELKKITTDYGYELTDDYQKANVIISIGGDGAFLKSVRETGFRQDCLYAGIALTEQLGQYCDFHINQLDEIIKAAIEDRWLVRRYPTIYGTVNNTKAFYVLNEFNIRSSIIRTLTMDLYINDSHFETFRGDGMVISTPTGSTAYNKSVNGSIVDPLLPSMQVSELASINNNKFRTLGSSFILSPKRKLRIEIASEEGNNEFPMIGMDSEALSIQHVHEVNLEVGDRFINIIKLPKNSFWDKVKRNFLLEHHHHHH”, with “soluble”. For the sequence “MAKVCYFTGRKTVSANNRSHAMNKTKRVAKPNLQKVTVLIDGKPKKVWASARALKSGKVERVLEHHHHHH”, the “soluble on expression in E. coli” value is given as “not soluble”. “MALANFDGPFDLLLQLIHSHKLDITEVALAQVTDEFIAYTKTLSSSAEDLDEVTEFLVVASTLLDLKAARLVPRGEVDSEEDLALLETRDLLFARLLQYRAYKQVADLFADWQRDAARAYPATLSLEEHHANLLPEVKIGKNADEFAELAAAVFRPKPDHVDTGHIHQVAVSVPEQAGRILNTLKVAGENTWVTFGALIADAELNMIVVGRFLALLELYKARAIGIEQPEPLQDMSVAWTGLDVDPAVVAASNWE”: the “soluble on expression in E. coli” value is “soluble”.

(Values after the DeepSol protein solubility set.)
